Laboratory results published in publication PMC3711648.

Target: human mutant SOD1 G93A (Cu/Zn superoxide dismutase) (human)
Assay: SEC

- stoichiometry N: 2
Substance: human mutant SOD1 G93A (Cu/Zn superoxide dismutase) (natural protein)
